Experimental data as given in patent US20080166749A1, “Fluorescent Protein Sensors of Post-Translational Modifications” (INVITROGEN CORPORATION, priority 1998, published 2008).
Where no end group is shown, it is not given here.

Experiments:
[1] = biological target: T1, protein kinase A catalytic subunit (Mus musculus, UniProt P05132); assay: Change in fluorescence after incubation with excess protein kinase A; type: biochemical; conditions: one hour at 30° C., 488 nm excitation, 511 nm emission; for % Change in fluorescence upon phosphorylation: more drastically altered N-terminal sites, excess PKA catalytic subunit; for % Change in fluorescence: excess protein kinase A catalytic subunit
Protocol: (§1) Numbers prior to the sequence indicate amino acid position in wild type GFP (SEQ ID NO:2) where phosphorylation motif starts. The relative rates of phosphorylation compare the rate of phosphorylation of the given phosphorylation motif with the endogenous protein kinase A phosphorylation motif in Aequorea GFP (HKFSV, SEQ ID NO:1) measured by incorporation of ^32P after incubation of the purified substrate and protein kinase A catalytic subunit in the presence of ^32P-labeled ATP using 3 micrograms of GFP, 5 micrograms protein kinase A catalytic subunit, for 10 minutes at 30° C. in standard phosphorylation buffer (20 mM MOPS, pH 6.5, 100 mM KCl, 100 micromolar ATP, 3 mM MgC2, 1 mM DTT and 100 microCi ^32P-labeled ATP. Reactions were terminated by blotting onto phosphocellulose paper and washing with 10% phosphoric acid. The percent change in fluorescence represents the increase in fluorescence (475 nm excitation, 510 nm emission) observed in each purified protein resulting from incubation with excess protein kinase A catalytic subunit for one hour at 30° C. using the same phosphorylation conditions as described above except that no ^32P labeled ATP was present and that after the reaction time was complete, samples were analyzed in a fluoromiter rather than blotted onto phosphocellulose paper.
(§2) Numbers prior to the sequence indicate amino acid position in the wild type GFP where the phosphorylation motif starts. The relative rates of phosphorylation compare the rate of phosphorylation of the given phosphorylation motif with the endogenous protein kinase A phosphorylation motif in Aequorea GFP (HKFSV) measured by incorporation of ^32P after incubation of the purified substrate and protein kinase A catalytic subunit in the presence of ^32P-labeled ATP using the standard protocols described above. The percentage change in fluorescence represents the change in fluorescence (488 nm excitation, 511 nm emission) observed in each purified protein as a result of incubation with excess protein kinase A catalytic subunit for one hour at 30° C. using phosphorylation conditions described above. […] To improve the effect of phosphorylation on fluorescence, amino acids around the phosphorylation site were mutated to create an optimal phosphorylation sequence even if it disordered the existing local tertiary structure. Such disruption was predicted and found to decrease the basal fluorescence of these constructs in their non-phosphorylated state (Table VI).
Numbers prior to the sequence indicate amino acid position in wild type GFP where the phosphorylation site starts. Negative numbers indicate extensions onto the wild-type N-terminus. The percent change in fluorescence represents the change in fluorescence (488 nm excitation, 511 nm emission) observed in each purified protein resulting from incubation with excess protein kinase A catalytic subunit for one hour at 30° C. using standard phosphorylation conditions described earlier.

[2] = biological target: T1, protein kinase A catalytic subunit; assay: Relative rate of phosphorylation by protein kinase A, ^32P incorporation; type: biochemical; conditions: relative to endogenous PKA motif HKFSV; sites inserted at the N-terminus of S65T GFP
Protocol: as §1, §2

[3] = Fluorescent properties of mutants of Aequorea green fluorescent protein (Table I); type: physicochemical
[4] = tested on: activated recombinant MAP kinase; assay: Phosphorylation of GFP Erk sensors by MAP kinase, ^32P incorporation; type: biochemical; conditions: for ^32P-Incorporation (CPM): 10 μM substrate, 100 ng MAP kinase, 30 minutes at 30° C., mean ± standard deviation of triplicates
Text: Experiments were terminated and samples processed as described previously in subsection D.4. Results presented in Table X represent means of triplicate determinations ±standard deviations of ^32P-incorporation in washed pellets as described earlier.

Erk-1 kinase = Erk-1 kinase (Homo sapiens, UniProt P27361); assay: Fluorescence change of Erk substrates after phosphorylation and acetate quench; type: biochemical; conditions: 2 μM GFP, 1 μg Erk-1 kinase, 1 hour at 30° C.; 3 hours in acetate quenching buffer pH 5.0
Sequence of Erk-1 kinase (P27361 whole entry): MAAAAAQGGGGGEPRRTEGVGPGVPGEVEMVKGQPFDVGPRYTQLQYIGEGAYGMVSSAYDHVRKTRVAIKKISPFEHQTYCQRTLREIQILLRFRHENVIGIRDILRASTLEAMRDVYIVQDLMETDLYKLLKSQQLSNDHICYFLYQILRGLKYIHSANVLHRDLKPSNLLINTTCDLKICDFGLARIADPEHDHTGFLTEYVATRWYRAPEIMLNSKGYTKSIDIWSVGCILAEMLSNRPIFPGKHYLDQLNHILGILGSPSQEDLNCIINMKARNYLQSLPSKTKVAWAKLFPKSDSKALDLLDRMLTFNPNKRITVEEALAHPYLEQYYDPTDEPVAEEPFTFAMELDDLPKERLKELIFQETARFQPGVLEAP
Protocol: These experiments were performed by incubating the GFP sample (2 μM) with Erk-1 kinase (1 μg) for 1 hour at 30° C. in assay buffer (20 mM MOPS, pH 7.2, 25 mM beta-glycerol phosphate, 5 mM EGTA, 1 mM DTT, 1 mM ATP, 20 mM MgCl2). Reactions were quenched by the addition of acetate quenching buffer (100 μL of 100 mM Acetate pH 5.0, 100 mM NaCl, 20 mM beta-Glycerol phosphate). Fluorescence changes were measured after 3 hours of incubation in acetate quenching buffer. Results represent the means of triplicate determinations.

% Change in fluorescence [1] | Relative rates of phosphorylation [2] | Compound | ^32P-Incorporation (CPM) [4] | other results
5.7% | 5.1 | 1MRKGSCLF: S65T GFP with N-terminal phosphorylation site MRKGSCLF (not fully specified (C-terminus); printed as 1MRKGSCLF) |  | 
8.0% | 1.6 | 1MRKGSLLF: S65T GFP with N-terminal phosphorylation site MRKGSLLF (not fully specified (C-terminus); printed as 1MRKGSLLF) |  | 
6.0% | 3.0 | 1MRRESLLF: S65T GFP with N-terminal phosphorylation site MRRESLLF (not fully specified (C-terminus); printed as 1MRRESLLF) |  | 
5.1% | 5.5 | 1MSKRRDSL: GFP with N-terminal phosphorylation site MSKRRDSL; 7% of wild type fluorescence (not fully specified (C-terminus); printed as 1MSKRRDSL) |  | 
25% | 2.1 | 1MSRRDSCF: S65T GFP with N-terminal phosphorylation site MSRRDSCF (not fully specified (C-terminus); printed as 1MSRRDSCF) |  | 

More lines, now with the values behind:

Compound | % Change in fluorescence [1] | Relative rates of phosphorylation [2] | ^32P-Incorporation (CPM) [4] | other results
1IMRRRRSI1: S65T GFP with N-terminal phosphorylation site MRRRRSII (not fully specified (C-terminus); printed as 1IMRRRRSI1) |  |  |  | % Change in fluorescence upon phosphorylation [1]: 70%; % Change in fluorescence upon phosphorylation ([1]; listed as 1MRRRRSII): about 70%
1MRDSCLF: S65T GFP with N-terminal phosphorylation site MRDSCLF (not fully specified (C-terminus); printed as 1MRDSCLF) | 17% | 3.7 |  | 
O=C(Nc1ccccc1-c1ccc(Cl)cc1)c1cccnc1Cl [Emerald] |  |  |  | Emission Max [3]: 508 nm; Excitation Max [3]: 487 nm
Erk-1: GFP mutant K8 with Erk kinase motif Met Val Glu Pro Leu Thr Pro Ser Phe (MVEPLTPSF; not fully specified; printed as Met Val Glu Pro Leu Thr Pro Ser Phe) |  |  | 1579 ± 282 CPM | 
Erk-4: GFP mutant K8 with Erk kinase motif Met Thr Gly Pro Leu Ser Pro Gly Phe (MTGPLSPGF; not fully specified; printed as Met Thr Gly Pro Leu Ser Pro Gly Phe) |  |  | 1982 ± 260 CPM | 
Erk-5: GFP mutant K8 with Erk kinase motif Met Thr Gly Pro Leu Ser Pro Gly Tyr (MTGPLSPGY; not fully specified; printed as Met Thr Gly Pro Leu Ser Pro Gly Tyr) |  |  | 6455 ± 558 CPM | 
Erk-6: GFP mutant K8 with Erk kinase motif Met Thr Gly Pro Leu Ser Pro Gly Leu (MTGPLSPGL; not fully specified; printed as Met Thr Gly Pro Leu Ser Pro Gly Leu) |  |  | 22498 ± 381 CPM | Fold Increase in Fluorescence after Phosphorylation (Erk-1 kinase): 1.20 fold
Erk-7: GFP mutant K8 with Erk kinase motif Met Thr Gly Pro Leu Ser Pro Gly Pro (MTGPLSPGP; not fully specified; printed as Met Thr Gly Pro Leu Ser Pro Gly Pro) |  |  | 25502 ± 2077 CPM | Km ([4]; kinetic analysis): 15 µM; Fold Increase in Fluorescence after Phosphorylation (Erk-1 kinase): 1.05 fold
Wild type: wild-type Aequorea green fluorescent protein, SEQ ID NO:2 |  |  |  | Emission Max [3]: 508 nm; Excitation Max [3]: 395 nm; Extinction Coefficient [3]: 21,000 M − 1 cm − 1; Quantum Yield [3]: 0.77
−1MRRRRSIII: S65T GFP with N-terminal phosphorylation site MRRRRSIII, N-terminus extended by one (not fully specified (C-terminus); printed as −1MRRRRSIII) |  |  |  | % Change in fluorescence upon phosphorylation [1]: 43%; % Change in fluorescence upon phosphorylation ([1]; listed as MRRRRSIII): about 70%
−2MRRRRSIIIF: S65T GFP with N-terminal phosphorylation site MRRRRSIIIF, N-terminus extended by two (not fully specified (C-terminus); printed as −2MRRRRSIIIF) |  |  |  | % Change in fluorescence upon phosphorylation [1]: 15%
